The values below come from patent publication US20230287125A1 (LEPU BIOPHARMA, published 2023).

Assay [1] has as its target T1, human PD-L1-his tag protein (human, UniProt Q9NZQ7 19-238).
T1 construct: also called human PD-L1-His protein; recombinant PD-L1 protein; not shown: his tag
The assay is described as follows: SPR (Biacore), affinity ranking, PDL1-His.

Assay [2] concerns the target T2, human PD-L1 over-expressed on CHOK1 cells (human, UniProt Q9NZQ7 19-290).
T2 construct: whole, on cells; also called PDL1-CHOK1 cells
As to the kind of experiment: flow cytometry (MFI) on PDL1-CHOK1 cells; lower right panel. The method, then: (§1) To evaluate the antigen binding property, the humanized antibodies were analyzed for their binding to PD-L1 overexpressed on mammalian cells by FACS. Briefly, PDL1-CHOK1 cells were firstly incubated with 3-fold serious diluted humanized antibodies starting at 15 μg/ml at 4° C. for 40 mins. After washed by PBS, the Alexa Fluor® 647 AffiniPure Goat Anti-Human IgG (H+L) antibody was added to each well and incubated at 4° C. for 30 mins. The MFI of Alexa Fluor® 647 was evaluated by FACSCanto.
In general terms: A flow cytometer gives signals particle by particle.

In assay [3] the target is T1, human PD-L1-his tag protein. The assay is described as follows: SPR (Biacore T200), mAb captured on Protein A chip, PD-L1-his injected. Here is the method: The binding of the humanized antibodies to recombinant PD-L1 protein (human PD-L1-his tag) was tested by Biacore using a capture method. […] A serial dilution of human PD-L1-his tag protein was injected over captured antibody for 2 mins at a flow rate of 30 μl/min. The antigen was allowed to dissociate for 1500 s. All the experiment were carried out on a Biacore T200.
For orientation: SPR reads the build-up and loss of mass on a sensor chip optically.

Assay [4] addresses T3, human PD-L1-Fc protein (human, UniProt Q9NZQ7 19-238).
T3 construct: coating antigen of the ELISAs; also called rhPD-L1-Fc; not shown: Fc
As to the kind of experiment: ELISA, antibody titrated on coated human PD-L1-Fc, OD 450nm; upper right panel.

Assay [5] concerns the target T3, human PD-L1-Fc protein. As to the kind of experiment: receptor blocking ELISA: coated human PD-L1-Fc, blocked ligand biotin-labeled human PD-1-Fc (Bio-PD1), OD 450nm; lower right panel. Here is the method:
(§2) Briefly, microtiter plates were coated with human PD-L1-Fc protein at 0.5 μg/ml in PBS, 100 μl/well at 4° C. overnight, then blocked with 150 μl/well of 1% BSA at 37° C. for 2 hours. […] The plates were washed with PBS/Tween and then incubated with Streptavidin-HRP for 10 mins at 37° C. After washing, the plates were developed with TMB substrate and analyzed by spectrophotometer at OD 450 nm.
For orientation: In an ELISA, binding on a coated surface is turned into a signal by an enzyme label.

Assay [6] has as its target T3, human PD-L1-Fc protein. As to the kind of experiment: receptor blocking ELISA: coated human PD-L1-Fc, blocked ligand biotin-labeled human CD80-Fc (Bio-CD80), OD 450nm; lower right panel. Here is the method: as §2
The next assay has as its target rat PD-L1 protein (rat, UniProt D4AE25 19-239). The assay is described as follows: ELISA, coated rat PD-L1. The method, then:
(§3) ELISA testing was carried out to evaluate the binding of chimeric antibodies to human, mouse, rat, and cynomolgus PD-L1, respectively.
(§4) Briefly, microtiter plates were coated with human, mouse, rat and cynomolgus PD-L1 proteins at 0.5 μg/ml in PBS, 100 μl/well at 4° C. overnight, then blocked with 150 μl/well of 1% BSA. Three-fold dilutions of chimeric antibodies starting from 10 μg/ml were added to each well and incubated for 1 hour at 37° C. The plates were washed with PBS/Tween and then incubate with mouse-anti-human IgG Fab antibody conjugated with Horse Radish Peroxidase (HRP) for 30 mins at 37° C. After washing, the plates were developed with TMB substrate and analyzed by spectrophotometer at OD 450 nm.

Another assay has as its target mouse PD-L1 protein (mouse, UniProt Q9EP73 19-239). As to the kind of experiment: ELISA, coated mouse PD-L1. Here is the method:
as §3, §4

Assay [7] has as its target T2, human PD-L1 over-expressed on CHOK1 …. As to the kind of experiment: flow cytometry on PDL1-CHOK1 cells. Here is the method:
After washing by PBS, Alexa Fluor® 647 AffiniPure Goat Anti-Human IgG (H+L) was added to each well and incubated at 4° C. for 30 mins. Samples were washed twice with FACS buffer. The mean florescence intensity (MFI) of Alexa Fluor® 647 was evaluated by FACSCanto.

The target of the next assay is cynomolgus PD-L1 protein (cynomolgus, UniProt G7PSE7 19-238). As to the kind of experiment: ELISA, coated cynomolgus PD-L1. Here is the method:
as §3, §4

The target of assay [8] is T3, human PD-L1-Fc protein. As to the kind of experiment: ELISA, coated human PD-L1 (PD-L1-Fc per paragraph 110). Here is the method: Briefly, microtiter plates were coated with human PD-L1-Fc protein at 0.5 μg/ml in PBS, 100 μl/well at 4° C. overnight, then blocked with 150 μl/well of 1% BSA. […] The plates were washed with PBS/Tween and then incubated with Mouse-anti-human IgG Fab antibody conjugated with Horse Radish Peroxidase (HRP) for 30 mins at 37° C. After washing, the plates were developed with TMB substrate and analyzed by spectrophotometer at OD 450 nm.
as §4

In assay [9] the target is T1, human PD-L1-his tag protein. The assay is described as follows: SPR (Biacore T200), mAb captured on Protein A chip, PD-L1-his injected. Here is the method: A serial dilution of human PD-L1-his tag protein was injected over captured antibody for 2 mins at a flow rate of 30 μl/min. The antigen was allowed to dissociate for 480-1500 s. All the experiment were carried out on a Biacore T200. Data analysis was carried out using Biacore T200 evaluation software.
This is another data set of the same source.

The target of assay [10] is T3, human PD-L1-Fc protein. The assay is described as follows: competition ELISA, coated human PD-L1-Fc, biotin-labeled human PD-1-Fc as competitor. Here is the method:
Briefly, microtiter plates were coated with human PD-L1-Fc protein at 0.5 μg/ml in PBS, 100 μl/well at 4° C. overnight, then blocked with 150 μl/well of 1% BSA. […] The plates were washed with PBS/Tween and then incubated with Streptavidin-HRP for 10 mins at 37° C. After washing, the plates were developed with TMB substrate and analyzed by spectrophotometer at OD 450 nm.

Assay [11] has as its target T2, human PD-L1 over-expressed on CHOK1 …. The assay is described as follows: flow cytometry (MFI) on PDL1-CHOK1 cells; lower right panel (with the Hu89C10H8 antibodies). The method, then: as §1
For assay [12], the target named is T3, human PD-L1-Fc protein. As to the kind of experiment: ELISA, antibody titrated on coated human PD-L1-Fc, OD 450nm; upper left panel (with Hu89C10H8-1 to -6). Here is the method:
as §4, with “To evaluate antigen binding activity, the humanized antibodies were subjected to ELISA test. Briefly,” for “Briefly,”, “with human PD-L1-Fc protein” for “with human, mouse, rat and cynomolgus PD-L1 proteins”, “with 200” for “with 150”, “of humanized” for “of chimeric”, “then incubated” for “then incubate”, “for 1 hour” for “for 30 mins”

In assay [13] the target is T3, human PD-L1-Fc protein. As to the kind of experiment: ELISA, antibody titrated on coated human PD-L1-Fc, OD 450nm; lower left panel (with Hu89C10H8-13 to -16). Here is the method:
as §4, with “To evaluate antigen binding activity, the humanized antibodies were subjected to ELISA test. Briefly,” for “Briefly,”, “with human PD-L1-Fc protein” for “with human, mouse, rat and cynomolgus PD-L1 proteins”, “with 200” for “with 150”, “of humanized” for “of chimeric”, “then incubated” for “then incubate”, “for 1 hour” for “for 30 mins”

The target in assay [14] is T3, human PD-L1-Fc protein. The assay is described as follows: ELISA, antibody titrated on coated human PD-L1-Fc, OD 450nm; upper right panel (with Hu89C10H8-7 to -12). The method, then: as §4, with “To evaluate antigen binding activity, the humanized antibodies were subjected to ELISA test. Briefly,” for “Briefly,”, “with human PD-L1-Fc protein” for “with human, mouse, rat and cynomolgus PD-L1 proteins”, “with 200” for “with 150”, “of humanized” for “of chimeric”, “then incubated” for “then incubate”, “for 1 hour” for “for 30 mins”

The target in assay [15] is T3, human PD-L1-Fc protein. As to the kind of experiment: receptor blocking ELISA: coated human PD-L1-Fc, blocked ligand biotin-labeled human PD-1-Fc (Bio-PD1), OD 450nm; upper left panel (with Hu89C10H8-4). Here is the method: as §2
The target of assay [16] is T3, human PD-L1-Fc protein. The assay is described as follows: receptor blocking ELISA: coated human PD-L1-Fc, blocked ligand biotin-labeled human PD-1-Fc (Bio-PD1), OD 450nm; lower left panel (with Hu89C10H8-11). The method, then:
as §2

Assay [17] addresses T3, human PD-L1-Fc protein. The assay is described as follows: receptor blocking ELISA: coated human PD-L1-Fc, blocked ligand biotin-labeled human PD-1-Fc (Bio-PD1), OD 450nm; upper right panel (with Hu89C10H8-7). Here is the method:
as §2

For assay [18], the target named is T3, human PD-L1-Fc protein. As to the kind of experiment: receptor blocking ELISA: coated human PD-L1-Fc, blocked ligand biotin-labeled human CD80-Fc (Bio-CD80), OD 450nm; upper left panel (with Hu89C10H8-4). Here is the method: as §2
The target in assay [19] is T3, human PD-L1-Fc protein. As to the kind of experiment: receptor blocking ELISA: coated human PD-L1-Fc, blocked ligand biotin-labeled human CD80-Fc (Bio-CD80), OD 450nm; lower left panel (with Hu89C10H8-11). Here is the method: as §2
The target of assay [20] is T3, human PD-L1-Fc protein. As to the kind of experiment: receptor blocking ELISA: coated human PD-L1-Fc, blocked ligand biotin-labeled human CD80-Fc (Bio-CD80), OD 450nm; upper right panel (with Hu89C10H8-7). The method, then: as §2
In assay [21] the target is T3, human PD-L1-Fc protein. The assay is described as follows: receptor blocking ELISA: coated human PD-L1-Fc, blocked ligand biotin-labeled human CD80-Fc (Bio-CD80), OD 450nm; lower right panel (with Hu89C10H8-12). The method, then: as §2

T3 sequence (Q9NZQ7 19-238 limits assumed): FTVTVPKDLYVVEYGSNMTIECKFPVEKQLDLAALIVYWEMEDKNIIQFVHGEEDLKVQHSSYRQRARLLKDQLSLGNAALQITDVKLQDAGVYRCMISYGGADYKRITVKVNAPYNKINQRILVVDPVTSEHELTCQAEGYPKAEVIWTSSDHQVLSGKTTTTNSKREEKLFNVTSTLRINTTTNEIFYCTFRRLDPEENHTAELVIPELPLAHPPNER
T1 sequence (Q9NZQ7 19-238 limits assumed): as above
T2 sequence (Q9NZQ7 19-290): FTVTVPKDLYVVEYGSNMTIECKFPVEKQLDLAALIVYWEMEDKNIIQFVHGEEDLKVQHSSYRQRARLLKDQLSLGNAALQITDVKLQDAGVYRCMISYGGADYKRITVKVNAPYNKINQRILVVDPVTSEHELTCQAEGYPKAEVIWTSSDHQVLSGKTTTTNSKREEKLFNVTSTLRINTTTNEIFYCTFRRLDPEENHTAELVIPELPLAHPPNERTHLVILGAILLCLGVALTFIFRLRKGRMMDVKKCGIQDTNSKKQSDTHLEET
Chain of cynomolgus PD-L1 protein (G7PSE7 entry or part of it): as the sequence (Q9NZQ7 19-238 limits assumed) above, with A33T, A34S, S62N, R68Q, Q82R, F173L, T185A, T192I, H215L counted along it
Chain of rat PD-L1 protein (D4AE25 entry or part of it limits assumed): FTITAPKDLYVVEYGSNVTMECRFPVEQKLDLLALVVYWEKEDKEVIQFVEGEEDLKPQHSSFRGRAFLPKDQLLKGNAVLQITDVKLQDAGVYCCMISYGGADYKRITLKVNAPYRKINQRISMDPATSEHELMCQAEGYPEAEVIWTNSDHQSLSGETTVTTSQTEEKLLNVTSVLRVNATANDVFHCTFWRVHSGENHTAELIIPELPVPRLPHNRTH
Chain of mouse PD-L1 protein (Q9EP73 19-239 limits assumed): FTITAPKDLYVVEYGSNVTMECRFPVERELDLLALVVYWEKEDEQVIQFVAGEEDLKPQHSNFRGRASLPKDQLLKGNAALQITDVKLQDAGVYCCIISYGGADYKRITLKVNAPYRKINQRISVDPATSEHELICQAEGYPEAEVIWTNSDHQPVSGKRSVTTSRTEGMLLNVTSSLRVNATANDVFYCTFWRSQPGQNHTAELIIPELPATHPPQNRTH

B1: Hu89C10H8-12 (antibody, V domains shown)
VH: EVQLVESGGGLVKPGGSLRLSCAASGFTFSNYWMTWIRQAPGKGLEWVASITNTGSSTFYPDSVKGRFTISRDNAKSSLYLQMNSLRAEDTAVYYCTRDTTIAPFDYWGQGTMVTVSS
VL: DIQMTQSPSSLSASVGDRVTITCKASQNLNEYLNWYQQKPGKAPKRLIYKTNTLQAGIPSRFSGSGSGIDYTLTISSLQPEDFATYYCSQYNSGNTFGQGTKLEIK
notes: humanized
By Kd is commonly meant the equilibrium constant for the complex coming apart. Read a low Kd as higher affinity. As a reminder, the koff is the first-order rate constant of dissociation. A higher koff goes with a short-lived complex. As a reminder, the kon is the second-order rate constant of association. Higher therefore signals faster complex formation. As a reminder, the EC50 is the concentration giving half of the maximal effect. One may read the IC50 as the concentration that gives 50% inhibition. A higher IC50 goes with weaker potency in that assay. For the molecule B1, the values for the Kd in assay [1] and in assay [3] were 0.0968 nM and 0.0952 nM, respectively. Moreover, the koff in assay [1] is 7.04e-05 s⁻¹; in assay [3], 5.59e-05 s⁻¹. The on-rate constant (kon) in assay [1] was determined as 727000 M⁻¹ s⁻¹; in assay [3] it was 587000 M⁻¹ s⁻¹. Moreover, the EC50 was determined as 0.131 nM in assay [2] and 7.03 ng/mL in the assay with human PD-L1-Fc protein [4]. The 50% inhibitory concentration (IC50) with human PD-L1-Fc protein [5] stood at 0.0891 µg/mL; with human PD-L1-Fc protein [6] it was 0.284 µg/mL.

B2: 89C10H8 chimeric mAb (antibody, V domains shown)
VH: EVQLVESGGGLVQPGRSLTLSCVASGFTFSNYWMTWIRQAPGKGLEWVASITNTGSSTFYPDSVKGRFTISRDNTRSTLFLQINSLRSEDTATYYCTRDTTIAPFDYWGQGVMVTVSS
VL: DIQMTQSPSFLSASVGDRVTITCKASQNLNEYLNWYQQKLGEAPKRLIYKTNTLQAGIPSRFSGSGSGIDYTLTISSLQPEDVATYFCSQYNSGNTFGAGTKLELK
notes: chimeric mAb of the hybridoma clone; also called 89C10H8-chimera
On to B2, for which the binding result with rat PD-L1 protein and with mouse PD-L1 protein was “no binding (tested: dilutions starting from 10 µg/ml)” in each case. Further, the EC50 was 0.17 nM in assay [7]; 6.77 ng/mL with cynomolgus PD-L1 protein; 8.11 ng/mL in the assay with human PD-L1-Fc protein [8]; 0.118 nM in [11]; 0.012 µg/mL in the assay with human PD-L1-Fc protein [12]; 0.0126 µg/mL in the assay with human PD-L1-Fc protein [13]. Besides, it took 0.0157 µg/mL to reach a half-maximal effect in the assay with human PD-L1-Fc protein [14] (EC50). For the same molecule, the Kd in assay [9] was determined as 0.0415 nM. In [9], this molecule registered an off-rate constant (koff) of 6.64e-05 s⁻¹. Moreover, the on-rate constant (kon) in assay [9] is 1.6e+06 M⁻¹ s⁻¹. For the same molecule, the IC50 was 0.13 µg/mL with human PD-L1-Fc protein [10]; 0.12 µg/mL in the assay with human PD-L1-Fc protein [15]; 0.133 µg/mL in the assay with human PD-L1-Fc protein [16]; 0.126 µg/mL with human PD-L1-Fc protein [17]; 0.432 µg/mL with human PD-L1-Fc protein [18]; 0.434 µg/mL with human PD-L1-Fc protein [19]. For the same molecule, the half-inhibitory concentration (IC50) is 0.438 µg/mL with human PD-L1-Fc protein [20] and 0.382 µg/mL with human PD-L1-Fc protein [21].
